Results on three substances are retold here after PMC5587908.

Experiment [1] addresses human plasminogen (Plg). Put plainly: ELISA. More on the design: dose or concentration left out as unconfirmed. Conditions: FnBPB proteins immobilized on microtiter wells, read off a plot. Background: ELISA stands for enzyme-linked immunosorbent assay.
The target of experiment [2] is FnBPA (194-511), FnBPA_(N2N3) (S. aureus) (UniProt P14738). Put plainly: ELISA; FnBPA_(N2N3) or FnBPB_(N2N3) coated on microtiter wells (200 ng/well, 0.1 M sodium carbonate pH 9.5), increasing concentrations of Plg for 1 h; bound Plg detected with rabbit anti-Plg and HRP goat anti-rabbit IgG; Kd from the Plg saturation kinetics.
The target of experiment [3] is FnBPB (163-480), FnBPB_(N2N3) (S. aureus). Described as above.
In experiment [4] the target is full-length FnBPB on S. aureus FnBPB^(+) cells (S. aureus strain 8325-4). Put plainly: single-cell force spectroscopy (AFM); as a5, in the presence of 0.1 mg ml^-1 Fg in the AFM chamber.
For experiment [5] the target is unchanged. Put plainly: single-molecule force spectroscopy (AFM); Plg on the AFM tip (PEG-benzaldehyde linker) against living S. aureus cells trapped in porous membranes; PBS, 20°C, contact time 250 ms, applied force 250 pN, speed 1,000 nm s^-1; without Fg.
Experiment [6] shares this target. The experiment in a line: single-cell force spectroscopy (AFM); single living S. aureus cell on a polydopamine-coated colloidal cantilever against Plg coupled to a gold substrate (NHS/EDC); PBS, 20°C, contact time 1 s, applied force 250 pN, speed 1,000 nm s^-1; without Fg.
For experiment [7] the target is unchanged. Put plainly: single-molecule force spectroscopy (AFM); as a7, in the presence of 0.1 mg ml^-1 Fg in the AFM chamber.
Experiment [8] shares this target. Put plainly: single-molecule force spectroscopy (AFM); Fg tips against living FnBPB^(+) cells; PBS, contact time 100 ms, applied force 250 pN, speed 1,000 nm s^-1.

Where “and” joins values, the source holds several entries; their conditions need not be identical. Identical values can stand only once.

Turning to “FnBPB (163-480), FnBPB_(N2N3) (from UniProt A0A0H2XKG3) N312A; F314A”, the response in experiment [1] (+ Fg (black bar), saturating amounts of Fg, bound Plg detected with rabbit antibodies followed by HRP-con, parent: est. 1.5) was found to be 1.5 A490nm; in experiment [1] (- Fg (white bar), bound Plg detected with rabbit antibodies followed by HRP-conjugated goat anti-rabbit IgG, parent: est. 1.6), 1.5 A490nm.

On to “human plasminogen (Plg) (natural protein)”, for which the Kd in experiment [2] worked out at 600 nM. In addition, the Kd in experiment [3] came to 380 nM. Moreover, the mean adhesion force (single cell, 3 cells, with 0.1 mg/ml Fg) in experiment [4] was 2100 pN. Also, in experiment [5], the adhesion force (single molecule) is 188 pN, the adhesion frequency turned out to be 40%, the binding force (cell 1) amounted to 175 pN and the binding force (cell 2) was 154 pN. For the same substance, in experiment [5], the binding force (cell 3) is 176 pN, the binding probability (cell 1) came out at 67%, the binding probability (cell 2) came out at 24% and the binding probability (cell 3) was determined as 42%. In addition, in experiment [6], the adhesion force (single cell, cell 1) was determined as 556 pN; the adhesion force (single cell, cell 2) came to 249 pN; the adhesion force (single cell, cell 2, a few curves) was 1630 pN; the adhesion force (single cell, cell 3) was determined as 1600 pN. Further, in experiment [6], the maximum adhesion force (single cell, cells 2 and 3) was 1500 pN and 2000 pN; the mean adhesion force (single cell, 3 cells) turned out to be 775 pN. Further, in experiment [7], the binding force (cell 1, with 0.1 mg/ml Fg) stood at 898 pN; the binding force (cell 2, with 0.1 mg/ml Fg) is 619 pN; the binding force (cell 3, with 0.1 mg/ml Fg) is 561 pN; the binding probability (cell 1, with 0.1 mg/ml Fg) stood at 81%. Moreover, in experiment [7], the binding probability (cell 2, with 0.1 mg/ml Fg) was determined as 79% and the binding probability (cell 3, with 0.1 mg/ml Fg) amounted to 73%.

For “human fibrinogen (Fg) (from UniProt P02671 36-866; P02675 45-491; P02679 27-453) (complex)”, in experiment [8], the adhesion force (single molecule, cell 1) was 1970 pN; the adhesion force (single molecule, cell 2) is 1690 pN; the adhesion force (single molecule, cell 3) was 1960 pN.

As usually defined, the Kd is the concentration at which binding is half-saturated.
